The experiment addresses botulinum neurotoxin serotype A light chain (Clostridium botulinum, UniProt P0DPI1 1-420). As to the kind of experiment: HPLC-based protease inhibition assay (Dixon plots). As to conditions: both partners purified.

Non-standard residues stand in square brackets, D forms with d. No end group written: not given here. Aib = CC(C)(N)C(=O)O

Chain of botulinum neurotoxin serotype A light chain (P0DPI1 1-420): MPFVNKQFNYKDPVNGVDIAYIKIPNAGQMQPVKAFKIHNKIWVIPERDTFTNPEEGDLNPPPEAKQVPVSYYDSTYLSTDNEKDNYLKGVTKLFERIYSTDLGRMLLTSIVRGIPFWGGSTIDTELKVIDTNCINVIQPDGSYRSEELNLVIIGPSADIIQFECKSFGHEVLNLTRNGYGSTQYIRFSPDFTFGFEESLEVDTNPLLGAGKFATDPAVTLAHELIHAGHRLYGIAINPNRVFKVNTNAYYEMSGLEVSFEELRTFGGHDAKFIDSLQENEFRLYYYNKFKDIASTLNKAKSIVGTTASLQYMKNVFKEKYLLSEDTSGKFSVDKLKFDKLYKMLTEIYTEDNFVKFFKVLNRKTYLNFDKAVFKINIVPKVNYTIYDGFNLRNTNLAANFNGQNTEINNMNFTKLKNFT

What is called Ki is a measure of affinity in units of concentration, obtained from inhibition or displacement. A lower Ki goes with a stronger hold on the target. For the molecule RRF[Aib]AML-NH2 [JTH-NB72-39], the Ki turned out to be 638 nM. As for RRW[Aib]AML-NH2 (not fully specified) [JTH-NB72-38], the figure is 990 nM.

The values above are taken from article PMC2894858 (PLoS ONE, 2010).
